Results as given in the supplement of paper PMC10567573.
± gives the standard deviation.

Test: protein stability index of a GFP-peptide fusion (GPS, HEK-293T) (PSI 1-6); higher = more stable
[1] = treatment: DMSO, c terminus: a fixed tail appended
[2] = treatment: MLN4924 1 uM, 8 h, c terminus: a fixed tail appended
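Note: 24-mer peptide tiles fused after GFP, lentivirally expressed, FACS-sorted into six equal bins by GFP/DsRed ratio, decoded by Illumina sequencing, PSI is the read-weighted mean bin number.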

Sequence	protein stability index [1]	protein stability index [2]	protein stability index (treatment: DMSO, c terminus: native)	protein stability index (treatment: MLN4924 1 uM, 8 h, c terminus: native)
MKDRTQELRTAKDSDDDDDVAVTV [STX1A]	5.11 ± 0.33	5.43 ± 0.32		
PWKKCCFSGDGEYIVAGSARQHAL [RBBP5]	2.14 ± 0.27	2.36 ± 0.22		
RLCTWLLALSPDLSLSNATVLTRS [FANCE]	2.92 ± 0.47	3.02 ± 1		
FKAEVDPLSDKGTTPLQLAIIRER [ASB7]	3.82 ± 0.34	3.85 ± 0.25		
NILFDFVKKKKEEGVIDSSDKEIV [EIF5]	3.65 ± 0.12	3.74 ± 0.27		
GFDTDGLSSAVWPGGETEALTRLE [CRY1]	4.54 ± 0.73	4.76 ± 0.29		
IKSEDMLKILKPSIPLERIHFDSY [FBXO33]	2.43 ± 0.23	2.36 ± 0.29		
FDHLQNRLIATKNPEEIRGGGLLK [TENT5C]	3.73 ± 0.26	4.09 ± 0.36		
TLNSIWNVEDHINPKLPNISLDVL [POMT2]	2.31 ± 0.092	2.48 ± 0.17		
QWLRPHVSTKEQILDLLVLEQFLS [ZSCAN9]	2.07 ± 0.5	2.22 ± 0.44		
FWLGNEALHSLTQAGDYSMRVDLR [TNXB]	2.19 ± 0.71	2.44 ± 0.14		
AEISQPPALSQLVNLYLGRSHFLW [TCF25]	2.67 ± 0.23	2.73 ± 0.44		
KFGVVQTSVEECSQKGCLALSLLE [CLCN6]	2.81 ± 0.071	2.99 ± 0.22		
NYMVQTEDQYIFIHDALLEAVTCG [PTPRD]	2.25 ± 0.35	2.13 ± 0.37		
MLPTVITDIKDESCCMTEEIFGPV [ALDH8A1]	3.83 ± 0.2	3.81 ± 0.13		
SVCSCTCYRSQDYGGRSVAPQNSF [KCNK9]	2.44 ± 0.23	2.64 ± 0.43		
SWEVVTSMGTQRCDAGVCVLREK [KLHL12]			2.89 ± 0.46	3.17 ± 0.41
RSFVEKHRWPSNMYLKQLAEYRKY [RHOBTB3]	2.38 ± 0.24	2.62 ± 0.74		
DVLENAFAPLLDEQYDLATKRVRQ [GOLPH3]	3.43 ± 0.26	3.52 ± 0.5		
FLFVLGGEDQWNPNGKHSTNFVSR [KLHL14]	2.11 ± 0.15	2.27 ± 0.41		
FLMLAVSLTVPLLGAMMLLESPID [APMAP]	3.52 ± 0.26	3.64 ± 0.37		
AQRLRPQDEPRQGCQPEDRRRRII [KCNG1]	4.92 ± 0.23	4.9 ± 0.1		
GIKSKEAEEYRLKEHYLTFEKSRY [PSD2]	3.82 ± 0.093	3.94 ± 0.31		

Sequence	protein stability index [1]	protein stability index [2]	protein stability index (treatment: DMSO, c terminus: native)	protein stability index (treatment: MLN4924 1 uM, 8 h, c terminus: native)
HSGTKRDPKEDVFQQNHLFWLQNS [PHTF1]	3.42 ± 0.25	3.33 ± 0.26		
SIVAQVDQTGSKSSNLLDLKNPFF [CARM1]	3.01 ± 0.15	3.43 ± 0.27		
HAQVVEELSNFKSQKVLGLNEDPL [ZBED1]	4.34 ± 0.28	4.44 ± 0.32		
VQPCSAVHLLLKKVLFALCALNAL [FAM189A2]	2.26 ± 0.37	2.35 ± 0.6		
PAITATLLDFMCRIIPNFYPPLEG [INTS3]	3.07 ± 0.13	3.1 ± 0.32		
LLLELKGLQEEPVEGFRVTLVDEG [CDC34]	2.64 ± 0.29	2.66 ± 0.21		
YSLLYLEHKGWYSWVLSMLYGFLL [CLPTM1]	2.18 ± 0.37	2.26 ± 0.49		
PQQTWASPAEVVDLTLDEDSRRKY [C18orf25]	5.1 ± 0.3	5.13 ± 0.14		
ITTNRFYGPQVNNISHTKEKKKGK [WASL]	4.17 ± 0.42	4.37 ± 0.29		
YSFVLTNRGNSAGGLQHRVTAKTA [PTPRD]	2.81 ± 0.29	2.97 ± 0.28		
LSICFTCFKAAFLDFKDLLESEDW [TEX19]	2.62 ± 0.5	2.69 ± 0.39		
PVALLLAQHKDRSTQLEMQLEKPK [MNAT1]	3.84 ± 0.19	3.8 ± 0.12		
GSRVLHVVQTLYPFSSVTEEELNF [NCK2]	2.31 ± 0.31	2.31 ± 0.22		
LSMNWAIVADILLYVVIPTRRSTA [SPNS1]	2.63 ± 0.62	3.01 ± 0.77		
KVYYEVIQLIKTNKKHIHSRSTLE [SMG5]	2.33 ± 0.93	2.26 ± 0.25		
SWSDNERSSSRINIPERASGPEGN [FAM104B]	4.79 ± 0.11	4.73 ± 0.32		
SPALQVMGPAQEAPVAEAWIPQAG [ZNF449]	4.6 ± 0.086	4.65 ± 0.27		
ADDFRTKYEHELALRQTVEADVNG [KRT16]	5.17 ± 0.38	5.09 ± 0.034		
GNNLLVFGGTGIPFGESNGNGVHV [KLHDC10]	2.66 ± 0.36	2.71 ± 0.41		
MVRKIGCYAAMKKKIYAMGGGSYG [GAN]	2.28 ± 0.17	2.45 ± 0.38		
RPSRSGAQQLEEEGPMEEEEAQPM [EID1]	5.66 ± 0.25	5.53 ± 0.2		
RGDERILSILRHQNLLKELQDLAL [CHGA]	2.36 ± 0.4	2.41 ± 0.29		
KVTGVEYHNAGTQTVPKRIPERLS [IQUB]	4.22 ± 0.22	4.23 ± 0.32		

Sequence	protein stability index [1]	protein stability index [2]	protein stability index (treatment: DMSO, c terminus: native)	protein stability index (treatment: MLN4924 1 uM, 8 h, c terminus: native)
WPFSMDCTGTEAHISSCKLGPQVS [LOXL2]	3.02 ± 0.25	3.08 ± 0.34		
IEERKQGLEQFINKVAGHPLAQNE [SNX3]	4.54 ± 0.13	4.31 ± 0.47		
STGEAGTDGDHNVYPRPPEPREFS [ZC2HC1C]	5.03 ± 0.19	5.03 ± 0.16		
VRKVPPGYSIKVFDFERSGLQHAP [SMAD6]	2.31 ± 0.33	2.63 ± 0.035		
HTGEKPYTCHECGDSFSHSSNRIR [ZNF263]	2.67 ± 0.2	3.4 ± 0.48		
MCPLYDPNRQLWIELAPLSMPRIN [GAN]	2.22 ± 0.11	2.23 ± 0.28		
GHHERSIMTDLYYLSQTDGAGDWR [FUT8]	3.2 ± 0.35	3.12 ± 0.24		
LASARIIEQDAVVPSEWLSSVYKQ [GMCL1]	3.31 ± 0.17	3.19 ± 0.24		
TRLSRLQEKEELRELNDRLAVYID [LMNB1]	3.42 ± 0.25	3.5 ± 0.28		
RRSFLNAHHRSGAQVFPESPESES [GNAS]	5.02 ± 0.25	5.03 ± 0.11		
QITSRVVSAATQLRHFFLVEDLVD [RTN2]	2.83 ± 0.24	3 ± 0.27		
TKEKKHQCDHCERCFYTRKDVRRH [PLAGL1]	3.69 ± 0.48	4.2 ± 0.5		
VSWFGSPTTSFLSISKLSPFSEFF [PWWP2B]	2.32 ± 0.62	2.35 ± 0.41		
CESDIWALGCVMYTMLLGRPPFET [PLK2]	3.72 ± 0.55	3.59 ± 0.71		
ALELLGATFVDKKRDLLGALKYWK [FEM1C]	2.25 ± 0.37	2.52 ± 0.86		
LVACCLADIFRIYAPEAPYTSPDK [PDS5B]	3.3 ± 1.4			
SNASEDTRRLRLAHVGMELQLKQE [SCARA5]	4.29 ± 0.33	4.4 ± 0.29		
QGWMNLLNMAKKSVDIVSSHWDLN [PLD5]	2.9 ± 0.45	3.46 ± 0.69		
FLPTALLCAYGFFASLRPSEPFLT [SLC19A2]	3.25 ± 0.56	3.26 ± 0.59		
YLDETCTCFVRDGKTYCKRDYVRL [ISL2]	2.68 ± 0.084	2.95 ± 0.3		
MTVMSGENVDEASAAPGHPQDGSY [KCNA1]	5.37 ± 0.21	5.12 ± 0.14		
PAPPPPAGGATAWGDLLGEDSLAA [SNAP91]	5.13 ± 0.22	5.11 ± 0.13		
PQGISPVSQHWATWALYNLVSVYP [ZER1]	3 ± 0.57	2.88 ± 0.32		

Sequence	protein stability index [1]	protein stability index [2]	protein stability index (treatment: DMSO, c terminus: native)	protein stability index (treatment: MLN4924 1 uM, 8 h, c terminus: native)
PDIRTKDIEDVFYKYGAIRDIDLK [SRSF1]	3.59 ± 0.12	3.62 ± 0.24		
SRVAHIERTRKPYNNDIDYYAKRN [GALNT9]	3.77 ± 0.37	3.91 ± 0.33		
NAIPGRTDIELEIYGMEGIPEKDM [ZNF207]	4.23 ± 0.35	4.37 ± 0.29		
VFIISTLAIDFIDEGRLLLEFDLL [SOAT2]	3.23 ± 0.31	3.03 ± 0.36		
LPFLAHALYVQAPTVTIEGFLQAL [TRIP13]	2.93 ± 0.66	2.76 ± 0.51		
LARGPLNQTALHLAAAHGHSEVVE [RIPK4]	4.36 ± 0.18	4.55 ± 0.19		
GGHSRERADEPQWSLYPSDSQVSE [CHGB]	5.28 ± 0.27	5.24 ± 0.34		
YNDGVINLLEKFFEMKKGQCKDAL [SNAP91]	2.31 ± 0.3	2.34 ± 0.2		
SICMRMEILGCPLPDPNNYYHRRN [CPXM2]	2.68 ± 0.27	2.46 ± 0.24		
SDWFNFHGHMCIAFELLGKNTFEF [CLK3]	3 ± 0.3	2.94 ± 0.31		
RGLGLGGRRLKSPQAPDPEEEENR [FANCE]	5.11 ± 0.23	5.58 ± 0.38		
RLVPGGQRPADVPEPGRAGYPAPR [HAGHL]	4.59 ± 0.13	4.68 ± 0.1		
ADACDIDEIEEVPTTSHRLSRHDK [NETO1]	5.59 ± 0.17	5.45 ± 0.17		
MATEGLHENETLASLKSEAESLKG [GNB5]	5.31 ± 0.23	5.2 ± 0.15		
QKVAVYRALQAALAESGGSPDVLQ [TRADD]	2.31 ± 0.36	2.4 ± 0.46		
AQPNTMLGRMFGSGREHNFTRPNE [BTBD10]	3.74 ± 0.53	3.61 ± 0.39		
TDRSHIYTFTDTFTEKLWPLFYPG [TRIM39]	2.16 ± 0.47	2.15 ± 0.56		
KYGDIPRGIFVVRGENVVLLGEID [LSM1]	2.27 ± 0.093	2.4 ± 0.32		
QVITLDQVLDEVIPIHGKGNFPTM [TENT5D]	2.29 ± 0.24	2.32 ± 0.25		
GTADGRVVKLENGEIETIARFGSG [APMAP]	4.66 ± 0.25	4.64 ± 0.1		
